This passage reports Kd results from paper doi:10.1101/2021.05.20.444958.

The series deals with His6-DnaA (Escherichia coli K-12?). In words: EMSA. (In general: In EMSA bound probe runs differently from free probe, usually more slowly.)

On to iraD upstream region, 672 bp, for which the Kd (as a rule, the equilibrium constant for the complex coming apart) worked out at 42 nM.
